# Experimental data reported in the supplement of paper PMC10567573.
# B1: KCNA3 (parent)
# chain: GERVVINISGLRFETQLKTLCQFP
# B2: TRAF3IP2 (parent)
# chain: PGQPLPGASVRGLHPVQKVILNYP
# Variants of: B1
# Assay: protein stability index of a GFP-peptide fusion (GPS, HEK-293T) (PSI 1-6); higher = more stable
# Conditions: c terminus: a fixed tail appended
# 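Note: lentivirally expressed fusions sorted by FACS into six bins by GFP to DsRed ratio, PSI derived from sequencing read proportions per bin multiplied by bin number.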
row,Variant,protein stability index
1,F13Q,1.87
2,F13M,2.64
3,F13E,2.14
4,F13V,2.58
5,F13L,1.06
6,F13P,2.27
7,F13T,1.56
8,F13K,1.67
9,F13I,2.7
10,F13N,1.26
11,F13A,1.45
12,F13S,1.97
13,F13G,2.14
14,F13D,1.48
15,F13C,2.83
16,L17H,3.03
17,L17D,2.06
18,L17N,2.04
19,L17A,2.88
20,L17R,1.87
21,L17I,2.92
22,L17K,1.42
23,L17E,1.87
24,L17V,2.92

row,Variant,protein stability index
1,L17T,2.85
2,L17P,2.58
3,V4T,2.27
4,V4W,2.82
5,V4S,2.59
6,V4Y,2.16
7,N7Y,1.8
8,N7Q,2.66
9,N7E,2.1
10,N7D,1.83
11,N7S,4.73
12,N7P,1.53
13,N7C,2.1
14,N7G,2.14
15,N7H,4.19
16,L20I,1.56
17,L20C,1.39
18,L20R,2.84
19,L20N,2.33
20,L20M,2.22
21,L20G,1.95
22,L20D,1.22
23,L20S,2.34
24,L20A,2.24

row,Variant,protein stability index
1,L20K,3.74
2,L20Q,1.2
3,T19Q,1.28
4,T19E,2
5,T19M,3.15
6,T19H,1.78
7,T19K,1.45
8,T19R,1.32
9,T19F,1.76
10,T19A,1.87
11,T19N,1.34
12,T19P,1.49
13,T19C,3.24
14,C21T,2.68
15,C21H,1.91
16,C21D,2.14
17,C21I,3.26
18,C21G,1
19,C21P,3.67
20,C21N,1.37
21,C21M,1.12
22,C21R,3.08
23,C21F,2.95
24,C21V,1.81

row,Variant,protein stability index
1,C21Q,2.57
2,F23N,1.52
3,F23H,3.14
4,F23I,2.48
5,F23A,2.41
6,F23R,1.92
7,F23Q,1.94
8,F23T,1.36
9,F23E,2.2
10,F23C,3.65
11,F23L,1.95
12,F23K,1.59
13,F23S,2.88
14,F23D,2.25
15,T15L,3.24
16,T15Q,2.31
17,T15N,3.66
18,T15R,2.69
19,T15G,4.2
20,T15E,2.62
21,T15Y,2.63
22,S9V,1.83
23,S9Q,3.24
24,S9A,1.29

row,Variant,protein stability index
1,S9E,3.59
2,S9G,1.04
3,S9L,2.27
4,S9K,2.4
5,S9D,1.51
6,S9P,1
7,S9F,2.47
8,I8H,2.55
9,I8K,1.97
10,I8R,1.83
11,I8Y,2
12,I8C,2.62
13,I8N,2.53
14,I8E,3.02
15,I8S,1.86
16,I8D,2.82
17,I8W,1.76
18,I8M,1.65
19,I8Q,2.12
20,I8V,1.28
21,I8G,2.23
22,I8F,2.85
23,I8P,3.11
24,I8T,2.17

row,Variant,protein stability index
1,I8A,1.67
2,L11S,1.75
3,L11N,2.94
4,L11V,3.59
5,L11W,2.49
6,L11Q,1.45
7,L11T,1.58
8,L11I,2.68
9,L11P,1.54
10,L11D,1.81
11,L11E,2.01
12,L11F,1.61
13,L11H,1.38
14,L11A,1.34
15,L11G,2.45
16,Q16G,2.49
17,Q16H,2.53
18,Q16M,4.05
19,Q16P,2
20,Q16T,1.39
21,Q16F,2.47
22,Q16D,1.87
23,Q16S,2.69
24,Q16N,1.04

row,Variant,protein stability index
1,Q16Y,2.02
2,V5C,2.49
3,V5H,1.93
4,V5I,2.99
5,V5Q,1.94
6,V5D,1.55
7,V5N,1.76
8,V5E,1.47
9,V5S,1.67
10,V5P,2.17
11,V5T,2.42
12,V5R,2.18
13,V5L,2.29
14,V5K,2.49
15,V5A,1.53
16,V5Y,2.39
17,V5F,2.05
18,V5G,2.04
19,R12D,1.84
20,R12L,4.18
21,R12K,2.5
22,R12S,1.48
23,R12Y,2.61
24,R12W,2.37

row,Variant,protein stability index
1,R12Q,2.21
2,R12P,1.45
3,R12N,2.85
4,R12C,2.46
5,E14V,3
6,E14P,1
7,E14N,2.08
8,E14M,3.03
9,E14R,1.89
10,E14D,2.37
11,E14H,3.28
12,E14G,2.74
13,E14Q,1.04
14,E14K,2.42
15,E14T,1.83
16,Q22M,3.99
17,Q22H,2.26
18,Q22E,2.39
19,Q22D,3.65
20,Q22A,1.9
21,Q22L,1.84
22,Q22C,4.8
23,Q22N,2.1
24,Q22T,2.59

row,Variant,protein stability index
1,Q22G,2.94
2,P24N,3.07
3,P24A,2.47
4,P24I,2
5,P24F,3.52
6,P24C,2.4
7,P24E,4.68
8,P24K,1.44
9,P24L,2.2
10,P24W,1.69
11,P24Y,2.26
12,P24V,1.04
13,P24G,2.75
14,I6S,2.86
15,I6Q,3.56
16,I6A,2.21
17,I6R,2.21
18,I6E,2.52
19,I6N,3.47
20,I6D,2.46
21,I6G,1.74
22,I6C,1.38
23,I6Y,1.33
24,I6H,1.78

row,Variant,protein stability index
1,I6P,3.15
2,I6T,2.75
3,I6M,1.32
4,I6K,2.68
5,G10V,1
6,G10F,2.81
7,G10N,2.35
8,G10R,1.26
9,G10E,2.8
10,G10D,1.47
11,G10P,4.02
12,G10I,1.81
13,G10T,2.62
14,G10L,3.08
15,K18I,3.07
16,K18E,3.06
17,K18D,3.02
18,K18S,1.78
19,K18R,2.29
20,K18M,3.17
21,K18A,3.07
22,K18C,1.92
23,K18Q,1.87

# Variants of: B2
# Assay: as above
# Conditions: c terminus: a fixed tail appended
row,Variant,protein stability index
1,G2F,2.92
2,G2I,2.62
3,G2C,2.22
4,G2H,2.06
5,G2E,3.79
6,G2T,3.21
7,G2A,2.89
8,G2W,2.15
9,G2P,3.35
10,G2M,2.44
11,G2L,2.23
12,G2R,3.39
13,G2N,2.65
14,G2Q,2.85
15,G2V,3.21
16,G2S,2.81
17,G2D,4.21
18,G2K,2.58
19,P1E,3.31
20,P1I,2.99
21,P1Q,3.47
22,P1L,2.78
23,P1M,3
24,P1S,2.62

row,Variant,protein stability index
1,P1N,3.63
2,P1T,2.65
3,P1K,3.02
4,P1C,1.73
5,P1Y,2.49
6,P1F,3
7,P1H,3.31
8,P1W,2.45
9,P1D,2.97
10,P1G,2.86
11,P1V,3.25
12,Q3S,3.97
13,Q3A,3.28
14,Q3W,2.31
15,Q3R,3.11
16,Q3H,2.72
17,Q3T,3.12
18,Q3Y,2.41
19,Q3G,4.09
20,Q3I,2.88
21,Q3N,3.28
22,Q3L,2.96
23,Q3P,3.57
24,Q3K,3.09

row,Variant,protein stability index
1,Q3M,3.34
2,Q3F,2.42
3,Q3V,3.42
4,Q3E,3.65
5,Q3C,2.71
6,Q3D,3.15
7,L5T,3.88
8,L5A,3.31
9,L5M,3.44
10,L5W,2.94
11,L5K,3.25
12,L5I,3.34
13,L5Q,3.95
14,L5Y,3.48
15,L5G,3.56
16,L5H,3.42
17,L5F,2.29
18,L5C,2.94
19,L5D,3.84
20,L5E,3.15
21,L5N,3.66
22,L5P,3.64
23,L5S,3.43
24,L5R,3.19

row,Variant,protein stability index
1,P6D,3.37
2,P6E,3.69
3,P6C,2.08
4,P6A,3.49
5,P4E,3.52
6,P4I,2.41
7,P4W,2.84
8,P4G,2.22
9,P4Q,3.29
10,P4H,3.08
11,P4T,4.15
12,P4F,2.92
13,P4V,2.69
14,P4C,2.73
15,P4Y,2.77
16,P4R,3.21
17,P4K,2.69
18,P4A,3.17
19,P4D,3.03
20,P4S,2.6
21,P4L,2.66
22,P4M,3
23,P4N,2.06
